In data set [1] the test system is HGM cells. Nature of the data set: 2D HC-CAPA (chloroalkane penetration assay), cytosolic delivery in 2D cell culture. It counts as cell-based. Conditions: 4 h; for CP50, half maximal cell-penetration concentration: HGM cells (HeLa stably expressing HaloTag-GFP-Mito), complexes 0 to max 20 μM in Leibovitz's, 37 °C, then HRO 2 5 μM 15 min, high-content fluorescence imaging, Hill analysis of DRCs, duplicates; for Uptake activity in 2D CAPA, in words: HGM cells, up to 20 μM. On the procedure: Cytosolic delivery into 2D cell culture was determined first using the chloroalkane penetration assay (CAPA).[55–57] This assay has been introduced recently by Kritzer et al. as a reliable tool to quantitatively measure cytosolic delivery.[55–57] The CAPA method operates with HGM cells, i.e. HeLa cells that stably express a fusion protein of HaloTag and GFP on mitochondria (Fig. 1c). Chloroalkylated transporters that reach the cytosol will react with these HaloTags, while all unused HaloTags will react with subsequently added chloroalkylated TAMRA 2. The result is decreasing TAMRA fluorescence with increasing uptake of transporters. Automated high-content high-throughput imaging has been introduced to measure TAMRA fluorescence only inside of healthy cells and generate high-precision dose–response curves (DRCs, Fig. 3) while simultaneously reporting on cell viability.[50] The uptake efficiency is reported as CP50 value, that is the transporter concentration needed to inhibit HaloTag labeling with 2 by 50%, determined by the Hill analysis of DRCs. In conventional 2D cell culture, complex 1 afforded CP50 = 3.6 ± 0.3 μM (Fig. 2, 3a, filled circles, Table 1).
Complex 22 was similarly prepared using 6 µL of peptide 12 (10 mM in DMSO, 3 […]
Complex 23 was similarly prepared using 4 µL of peptide 13 (10 mM in DMSO, 2 […]
Complex 24 was similarly prepared using 2 µL each of peptides 12 and 13 (10 mM in DMSO, 1 equivalent each).
Complex 25 was similarly prepared using 4 µL of peptide 14 (10 mM in DMSO, 2 […]
Complex 26 was similarly prepared using 2 µL each of peptides 13 and 14 (10 mM in […]
HeLa cells stably expressing the HaloTag-GFP-Mito fusion protein (HGM): The cells were originally designed by the Chenoweth lab as described in ref. S10. They were cultured using the described procedure in ref. S4.
3.2.1 General HC-CAPA protocol
As in ref. S11, HGM cells were seeded at 8 ×10^4 cells/mL in FluoroBrite DMEM + 10% FBS on μ-Plates 96-well ibiTreat sterile and kept at 37 °C with 5% CO2 overnight. Next day, cells were washed with PBS ([…]) and the media were exchanged to Leibovitz’s (4 × 150 μL/well) using a plate washer, keeping a final volume of 135 μL/well. Then, serial dilutions of the corresponding complexes 1, 15-26 in PBS were prepared in a 96-well V-bottom plate and added to the μ-Plate containing the cells (15 μL/well, 10x final concentration in PBS) to reach a final volume of 150 μL/well (0 to maximum 20 μM). Cells were incubated for 4 h at […]
37 °C with 5% CO2. After this, cells were washed again and HRO 2 was added (15 μL/well, 50 μM in PBS) to reach a final volume of 150 μL/well (5 μM), except for the control wells, where only PBS was added (15 μL/well). After 15 min of incubation at 37 °C with 5% CO 2, the plate was washed again. Then, Hoechst 33342 was added (15 μL/well, 170 μM in PBS) to reach a final volume of 150 μL/well (17 μM). After 15 min of incubation at 37 °C with 5% CO2, the plate was washed one last time and the cells were kept in clean Leibovitz’s media.
During imaging, samples were kept at 37 °C with 5% CO2. A total of 16 images/well at 40x were recorded, using three channels: blue (excitation filter: 37 7/50 nm, emission filter: 477/60 nm, exposure time: 10 ms), green (excitation filter: 475/34 nm, emission filter: 536/40 nm, exposure time: 20 ms) and red (excitation filter: 531/40 nm, emission filter: 593/40 nm, […]
(§1) Duplicates were performed for each condition.
Fig. S2 Blue channel recording the Hoechst 33342 localization in the nuclei (left), green channel recording the GFP signal in the mitochondria (middle) and red channel recording the signal from HRO 2 (right) covalently attached to HaloTag protein in the mitochondr ia. Scale […]
3.2.2. HC-CAPA analysis protocol
As in ref. S11, for each cell, the DAPI and GFP channel images were used for the segmentation of the nuclei and whole cell body, respectively. Three successive filters have then been used for the cell selection process: […]

A short description of data set [2]: Solubility of streptavidin/peptide complexes in water. It counts as physicochemical. The procedure:
However, this interpretation should not be overestimated because the CP50 = 2.5 ± 0.2 μM remained near those of single dithiolane quartets in 19 and 1.

Data set [3] deals with HGM spheroids. Nature of the data set: 3D HC-CAPA, cytosolic delivery in multicellular spheroids. It counts as cell-based. Conditions: for Penetration of HGM spheroids (suppression of emission of CAPA probe 2), in words: 20 μM, 6 h, then 2 for 45 min, cross-sectional CSDM images 80 μm from surface; for SP50, half maximal spheroid-penetration concentration: 3D HC-CAPA, HGM spheroids 350–400 μm, complexes 0 to max 20 μM, 2 or 6 h, 37 °C, then HRO 2 5 μM 45 min, average TAMRA intensity over entire spheroid, Hill analysis of DRCs, duplicates. On the procedure:
Spheroids of HGM cells with an average size of 350–400 μm were prepared in cell-repellent U-bottom 96-well plates following standard procedures (Fig. 4a).[1–26] In cross-sectional confocal spinning disc microscopy (CSDM) images taken 80 μm from the surface, GFP emission was homogeneously distributed (Fig. 4b). Similarly the homogeneous cross-sectional TAMRA emission upon addition of 2 was consistent with unhindered passive diffusion of the small, cationic CAPA probe across the spheroid (Fig. 4c, m, red circles, 1c). […] Line-scan analysis of the TAMRA intensity along the cross-section in the CSDM image gave an almost linear decrease (Fig. 4m, green squares). […] Comparison of the line-scan analyses for 20 μM 19 after 2 h and 6 h incubation illustrated how transporter 19 penetrates the spheroids with time from the periphery to the center as expected for operational transcytosis (Fig. 4m, l vs. i). […] At c ∼ SP50, thiol-mediated delivery decreases linearly with increasing depth because the limited amount of transporter 19 provided is gradually consumed by kinetically competing direct translocation and irreversible reaction with the HaloTags on the mitochondria of the cells on the way into the spheroids. […]
HGM cells were seeded at 5 × 10^3 cells/mL in FluoroBrite DMEM + 10% FBS on NunclonTM SpheraTM U-bottom 96-well sterile μ-Plates and kept at 37 °C with 5% CO2 for 3 days. After the spheroids were formed, the medium was exchanged to Leibovitz’s (6 × 200 μL/well) using a Biotek MultiFloTM FX plate washer, keeping a final volume of 135 μL/well.
Then, serial dilutions of the corresponding complexes 18-20 in PBS were prepared in a 96-well V-bottom plate and added to the μ-Plate containing the spheroids (15 μL/well, 10x final concentration in PBS) to reach a final volume of 150 μL/well (0 to maximum 20 μM). Cells were incubated for 2 or 6 h at 37 °C with 5% CO2. After this, cells were washed again and HRO 2 was added (15 μL/well, 50 μM in PBS) to reach a final volume of 150 μL/well (5 μM), except for the control wells, where only PBS was added (15 μL/well). After 45 min of incubation at 37 °C with 5% CO2, the plate was washed again. Then, the plate was kept for 1 h at 37 °C with 5% CO2 and was washed again. During imaging, samples were kept at 37 °C with 5% CO2. A z-stack of 19 images/well (10 μm per step) at 10x were recorded, using two channels: green (excitation filter: 475/34 nm, emission filter: 536/40 nm, exposure time: 200 ms) and red (excitation filter: 531/40 nm, emission filter: 593/40 nm, exposure time: 200 ms), […]
as §1
Fig. S4 TL channel (left), Green channel recording the GFP signal in the mitochondria (middle left) and red channel recording the signal from HRO 2 (middle right) covalently attached to HaloTag protein in the mitochondria. Merged images showing colocalization of G FP and HRO 2 signals (right). Images are 2D projections of all planes. Scale bar: 100 μm.
3.3.2 3D HC-CAPA analysis protocol
For each spheroid, the TL and green channel images were used for the segmentation of the object. A gaussian filter was applied to blur the image and allow the creation of the spheroid […]
Fig. S5 Green channel recording the GFP signal in the mitochondria (left), applied Gaussian filter (middle) to generate the spheroid mask in white (right). Images are 2D projections of all planes. Scale bar: 100 μm. […]
3.3.2 3D HC-CAPA results for uptake quantification […]

Where [4] appears, read: streptavidin/peptide complex in water.

9 substances from PMC8549803, “Dithiolane quartets: thiol-mediated uptake enables cytosolic delivery in deep tissue” (Chemical Science, 2021) can be followed below.

“Also recorded” adds a separate entry of the source. Where two headings read alike, the source gives them in different places.

In the case of “EEEEEE [compound 23, streptavidin 3/peptide 13 (EEEEEE) 1 : 2 complex]”, in data set [1], the “CP50, half maximal cell-penetration concentration” value was over 20 µM and the “Uptake activity in 2D CAPA, in words” value is “inactive”. Moreover, the “Solubility of complex in water, in words” value in data set [2] (setting [4]) was “soluble”.

With “EEEUUU [compound 19, 1 : 3 streptavidin 3/peptide 9 (EEEUUU) complex]”, in data set [3], the “Penetration of HGM spheroids (suppression of emission of CAPA probe 2), in words” value (from here on “Penetration of HGM spheroids”) is “almost complete disappearance of all fluorescence; also recorded: suppressed fluorescence throughout the spheroid” and the “SP50, half maximal spheroid-penetration concentration” value is 5.3 ± 0.9 µM. Besides, in data set [1], the “CP50, half maximal cell-penetration concentration” value came to 3.8 ± 0.2 µM and the “Uptake activity in 2D CAPA, in words” value was “preserved activity”.

With “EEUUUU [compound 21, 1 : 3 streptavidin 3/peptide 11 (EEUUUU) complex]”, in data set [1], the “CP50, half maximal cell-penetration concentration” value was determined as 2.5 ± 0.2 µM and the “Uptake activity in 2D CAPA, in words” value is listed as “most active of all transporters”.

Consider EUEUEU [compound 1], for which, in data set [3], the “Penetration of HGM spheroids” value was “suppressed fluorescence throughout the spheroid”. Also, the “CP50, half maximal cell-penetration concentration” value in data set [1] was determined as 3.6 ± 0.3 µM.

As to “EUEUeU [compound 16, 1 : 3 streptavidin 3/peptide 6 (EUEUeU) complex]”, the “CP50, half maximal cell-penetration concentration” value in data set [1] amounted to 16 ± 2 µM.

Regarding “EUUUUU [streptavidin complex of EUUUUU peptide, insoluble, not finalized]”, the “Solubility of complex in water, in words” value in data set [2] is “insoluble in water”.

For the substance “KKKKKK [compound 25, streptavidin 3/peptide 14 (KKKKKK) 1 : 2 complex, isostructural CPP control]”, in data set [3], the “Penetration of HGM spheroids” value is “failed to penetrate HGM spheroids”. In addition, in data set [1], the “CP50, half maximal cell-penetration concentration” value was found to be 2.8 ± 0.3 µM and the “Uptake activity in 2D CAPA, in words” value is “in the range of the best dithiolane quartets”.

Regarding “UUUEEE [compound 20, 1 : 3 streptavidin 3/peptide 10 (UUUEEE) complex]”, the “SP50, half maximal spheroid-penetration concentration” value in data set [3] was 17 ± 6 µM. Besides, in data set [1], the “CP50, half maximal cell-penetration concentration” value is over 20 µM and the “Uptake activity in 2D CAPA, in words” value was “inactive”.

On to UUUUUU [compound 22], for which, in data set [1], the “CP50, half maximal cell-penetration concentration” value was over 20 µM. In data set [2] (setting [4]), the “Solubility of complex in water, in words” value was “insoluble in water”.
